For 1 substance, stoichiometry N and t1/2 of hexamer dissociation results are on record in PMC10728891.

Assay [1] addresses human insulin (human) (UniProt P01308). As to the kind of experiment: AUC; sedimentation velocity, 300 μM insulin, […] m-cresol, […] ZnCl2, 25 mM tris buffer pH 8.0, interference optics.
Assay [2] shares this target. As to the kind of experiment: circular dichroism, dissociation kinetics after dilution; 600 μM insulin, 250 μM ZnCl2, 25 mM m-cresol, 25 mM tris pH 8 (R6 hexamer), diluted 150-fold into 25 mM tris pH 8.0; ellipticity at 222 nm over 120 s at 25 °C; monoexponential fit; hexamer to monomers. (CD spectra are sensitive to the conformation of chiral molecules.)

Broadly, the stoichiometry N is the number of molecules, sites or subunits per partner or assembly.

Substance “human insulin (from UniProt P01308 25-54; P01308 90-110) (natural protein)” had a stoichiometry N in assay [1] of 6. In assay [2], this substance yielded a t1/2 of hexamer dissociation of 18.4 s.
